The values that follow come from patent EP3801029B1 (Morehouse School of Medicine, dated 2024).

Assay [1] deals with T1, Mortalin (UniProt P38646 47-679).
T1 construct: Endogenous protein from Jurkat cells (a human cell line); also called Glucose-regulated protein 75; GRP75
The assay can be described thus: peptide pull-down from Jurkat cell lysate, Western blot. On the technique in general: A western blot detects proteins with antibodies after separation by electrophoresis.

The next assay concerns the target T2, E. coli DnaK protein (Escherichia coli, UniProt P0A6Y8 2-638).
T2 construct: Endogenous protein from E. coli lysate; also called heat shock protein 70; Hsp70
As to the kind of experiment: ANTI-FLAG M2 pull-down from E. coli lysate, Western blot with anti-DnaK antibody.

In assay [2] the target is T1, Mortalin. The assay can be described thus: peptide pull-down from Jurkat cell lysate, Western blot with anti-mortalin antibody.

T1 sequence (P38646 47-679 limits assumed): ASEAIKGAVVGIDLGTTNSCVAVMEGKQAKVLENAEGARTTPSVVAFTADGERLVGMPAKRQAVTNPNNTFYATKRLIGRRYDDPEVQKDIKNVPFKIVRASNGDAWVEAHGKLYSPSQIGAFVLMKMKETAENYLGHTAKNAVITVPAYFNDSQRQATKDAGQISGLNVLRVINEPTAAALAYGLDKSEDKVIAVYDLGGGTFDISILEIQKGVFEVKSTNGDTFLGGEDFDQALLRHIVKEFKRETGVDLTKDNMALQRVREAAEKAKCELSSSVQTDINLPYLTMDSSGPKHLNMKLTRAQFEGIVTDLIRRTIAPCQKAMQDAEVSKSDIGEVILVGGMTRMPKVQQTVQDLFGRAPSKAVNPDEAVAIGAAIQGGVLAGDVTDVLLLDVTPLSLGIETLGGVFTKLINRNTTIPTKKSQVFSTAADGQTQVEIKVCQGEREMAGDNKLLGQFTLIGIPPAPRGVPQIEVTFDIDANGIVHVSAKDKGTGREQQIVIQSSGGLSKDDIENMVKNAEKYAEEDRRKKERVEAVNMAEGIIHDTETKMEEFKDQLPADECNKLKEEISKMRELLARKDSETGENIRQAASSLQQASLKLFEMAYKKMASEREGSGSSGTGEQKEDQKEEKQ
T2 sequence (P0A6Y8 2-638 limits assumed): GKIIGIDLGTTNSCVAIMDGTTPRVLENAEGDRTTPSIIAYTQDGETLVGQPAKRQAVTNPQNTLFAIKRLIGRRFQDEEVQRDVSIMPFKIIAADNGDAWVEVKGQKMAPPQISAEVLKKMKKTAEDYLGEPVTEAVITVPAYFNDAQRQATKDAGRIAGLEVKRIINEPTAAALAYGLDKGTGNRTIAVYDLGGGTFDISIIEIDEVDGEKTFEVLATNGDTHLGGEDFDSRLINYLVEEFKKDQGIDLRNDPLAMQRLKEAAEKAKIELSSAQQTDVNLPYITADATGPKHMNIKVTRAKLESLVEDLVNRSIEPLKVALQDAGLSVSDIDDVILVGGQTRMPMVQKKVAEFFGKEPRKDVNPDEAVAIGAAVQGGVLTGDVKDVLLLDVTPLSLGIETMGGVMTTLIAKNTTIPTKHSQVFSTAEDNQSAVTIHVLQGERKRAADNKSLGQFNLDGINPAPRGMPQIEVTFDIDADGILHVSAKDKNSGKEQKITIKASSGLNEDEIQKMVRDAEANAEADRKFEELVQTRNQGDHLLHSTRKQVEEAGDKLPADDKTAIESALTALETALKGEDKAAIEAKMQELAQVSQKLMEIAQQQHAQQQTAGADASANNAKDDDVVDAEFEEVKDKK

Take VGFPVAAVGFPVDYKDDDDK (also called SMR peptide; antagonist) [synthetic HIV-1 Nef SMRwt peptide (VGFPVAAVGFPVDYKDDDDK)]: the binding result with Mortalin [1] is recorded as “binds”.

B1: synthetic HIV-1 Nef SMRmut peptide (AGFPVAAAGFPVDYKDDDDK) (peptide)
peptide: AGFPVAAAGFPVDYKDDDDK
notes: also called negative control peptide; mutant SMR peptide
On to B1, for which the binding result with E. coli DnaK protein is recorded as “no binding (tested: 1 µg peptide with 1 mg E. coli lysate)”; with Mortalin [2] it was “no binding”.
